Key:
[1] = system: Notch (NICD); assay: Notch inhibition, Western blot of activated Notch (NICD); format: cell-based, human; conditions: MDA-MB231 cells treated for two hours
Description: To investigate the potential role of ANTP/DN-MAML to inhibit Notch signaling activation the high metastatic mammary epithelial cell line MDA-MB231 cell line was treated with the ANTP/DN-MAML fusion protein for two hours. Total protein was extracted from cells using SDS buffer. Total protein concentrations were determined using the BCA protein assay kit. Total protein ([…]) was diluted in 5× sample buffer ([…] Tris-HCl pH 6.8, 500 mM dithiotheitol, 10% SDS, 0.5% bromophenol blue, 50% glycerol), heated at 100° C. and analyzed by SDS-PAGE. Electrophoresis was carried out in running buffer (25 mM Tris HCl, 250 mM glycine, 0.1% SDS) for 60 minutes or until the bromophenol blue had run out of the gel. Separated proteins were transferred to nitrocellulose membrane in ice cold transfer buffer (39 mM glycine, 48 mM Tris HCl) electrophoretically for 90 minutes at 100V. Western blots were probed with the […] in blocking buffer at 4° C. over night with anti-Mouse IgG peroxidase produced in goat […] (Sigma A9917). Nitrocellulose membranes were washed 4 times for five minutes each in TBS-T buffer. […]

[2] = system: Breast cancer xenografts; assay: In vivo tumor reduction in breast cancer xenografts; design: species or system mice; conditions: 4 mg/kg every two days, n=6 per group, vs PBS control
Description: Breast cancer xenografts were established in mice. The mice were divided into two groups, and injected every two days with either PBS as a control, or with 4 mg/kg ANTP/DN-MAML fusion protein (n=6 per group) (FIG. 4A). Control mice treated with PBS developed rapidly growing tumors. The control mice were euthanized after twenty days. […] (FIG. 4B).

[3] = In vivo maximum tolerated dose study; design: species or system mice
Description: ANTP/DN-MAML tail vein administration was started when the mice reached an age of 12 weeks. Mice were continuously monitored for signs of hypoglycemic shock or drug side effects and were sacrificed if body weight loss exceeded 15%. Various dosages were tested starting at 4 mg/kg/day. […] This experiment was terminated by sacrificing the animals three days after injection.

[4] = system: Colo205 tumors; assay: Colon cancer xenograft model; format: in vivo, female nude mice; conditions: 0.2 ml of 4 mg/ml every other day, Colo205 xenografts
Description: High levels of Notch are expressed in colon cancer cells. ANTP/DN-MAML was administered to female nude mice bearing xenografted Colo205 tumors. Injections of 0.2 ml of 4 mg/ml ANTP/DN-MAML protein were administered to the mice every other day. This dose is equivalent to 2 g of ANTP/DN-MAML fusion protein per patient.

[5] = Biodistribution by Western blot of organs after intravenous injection; format: in vivo, CD1 nude mice; conditions: 4 mg/kg intravenously via tail vein, 2 hours after injection
Description: To determine whether Antennapedia could be used to deliver the DN-MAML in vivo, CD1 nude mice were injected intravenously via tail vein with 4 mg/kg of the ANTP/DN-MAML fusion protein. The mice were perfused for 5 min with phosphate-buffered saline and sacrificed 2 hours following the injection. The expression of ANTP/DN-MAML in each organ was determined by Western blot analysis. […] As such, the targeted delivery system of the present invention may have wide applications in the administration of therapeutic proteins to the central nervous system.

[6] = system: MDA-MB231 cells; assay: Cellular localization by immunostaining (nuclear transduction); format: cell-based, human; conditions: 50 μM, two hours, serum free media, anti-His immunostaining
Description: To determine the cellular localization of the ANTP/DN-MAML (TR4) fusion protein, immunostaining on human mammary epithelial breast cancer MDA-MB231 cells was carried out. MDA-MB231 cells were cultured to sub-confluence in Dulbecco's modified Eagle's medium containing 10% calf serum at 37° C. The coverslips with cells attached were washed, and incubated with ANTP/DN-MAML purified fusion protein in serum free media for two hours at a concentration of 50 μM. Cells were washed three times and fixed with 4% paraformaldehyde for 15 minutes. After brief washes, the coverslips were incubated with blocking solution and subsequently with anti-His primary and FITC-conjugated secondary antibody.

[7] = system: MDA MB231 xenograft tumor; assay: Penetration into outer, middle and inner core of xenografted mammary tumors (Western blot, immunohistochemistry); format: in vivo, CD1 Nude mice; conditions: tail vein injection
Description: Purified ANTP/DN-MAML fusion protein was injected into CD1 Nude mice xenografted with MDA MB231 human mammary epithelial breast cancer cells via the tail vein. The mice were perfused for 5 min with phosphate-buffered saline and sacrificed 2 hours following the injection. The tumor was removed and dissected under a stereoscope to separate the outer, middle, and inner core of the tumor. The ANTP/DN-MAML in each core of the tumor was determined by Western blot.
In order to establish the localization of ANTP/DN-MAML within the tumors, immunohistochemistry on the above mammary cancer samples was performed.

[8] = Immunogenicity in immuno-competent mice by ELISA; format: in vivo; conditions: intravenous 0.2 ml, 2.5 mg/ml without adjuvant, once per day for 5 days; 2.5 mg per week; monitored over 4 months
Description: The immunogenicity of ANTP/DN-MAML was investigated in immuno-competent mice. Animals were immunized intravenously with ANTP/DN-MAML (0.2 ml, 2.5 mg/ml) without adjuvant, once per day for 5 days. Mice were bled once per week over a 4-month period, and the immune response monitored by ELISA. Blood samples were diluted 1:10, 1:100 and 1:1000 in PBS, and the immune response was monitored by ELISA on native ANTP/DN-MAML (coated at 50 μg/ml) and detected using anti-mouse antibodies. […] This dose is equivalent to 100 mg/kg in humans.

Substance	downregulation of Notch activation (NICD) [1]	tumor volume [2]	side effects at the maximum tolerated dose ([3]; 57 mg/kg/day, tail vein)	maximum tolerated dose ([3]; tail vein administration, mice aged 12 weeks) [mg/kg/day]	colon cancer cell growth in vivo [4]	detection in brain (blood-brain barrier crossing) [5]	signal in liver, kidney, heart, lung, spleen and brain tissue vs PBS injected mice ([5]; Western blot)	cellular localization [6]	detection in outer, middle and inner core of the tumor ([7]; 2 hours, Western blot, vs PBS control)	localization within the tumors (immunohistochemistry) ([7]; MDA MB231 xenograft)	immune response (ELISA) [8]
ANTP/DN-MAML: 14.18 KDa fusion protein of antennapedia homeodomain, 62 amino acid DN/MAML sequence and pentahistidine tag (SEQ ID NO.:2)	Downregulation of Notch activation occurred	no increase in tumor volume after thirty-two days	loss of appetite, weight loss and hypoglycemia	57	reduced colon cancer cell growth in vivo	detected in the brains	significant signal	nuclear localization	detected in the outer, middle and inner core of the tumor	Intense ANTP/DN-MAML staining within the nucleus of mammary cancer cells	does not raise an immune response
ANTP: Trojan peptide; 60 amino acid Drosophila antennapedia homeodomain (SEQ ID NO.:4), used alone as control [reference compound]	not in cells treated with ANTP alone										
